Measurements taken from IntAct's records for PubMed 15901771.

B1: Potassium voltage-gated channel protein eag (Drosophila melanogaster (Fruit fly)), Q02280 (parent)
chain: MPGGRRGLVAPQNTFLENIIRRSNSQPDSSFLLANAQIVDFPIVYCNESFCKISGYNRAEVMQKSCRYVCGFMYGELTDKETVGRLEYTLENQQQDQFEILLYKKNNLQCGCALSQFGKAQTQETPLWLLLQVAPIRNERDLVVLFLLTFRDITALKQPIDSEDTKGVLGLSKFAKLARSVTRSRQFSAHLPTLKDPTKQSNLAHMMSLSADIMPQYRQEAPKTPPHILLHYCAFKAIWDWVILCLTFYTAIMVPYNVAFKNKTSEDVSLLVVDSIVDVIFFIDIVLNFHTTFVGPGGEVVSDPKVIRMNYLKSWFIIDLLSCLPYDVFNAFDRDEDGIGSLFSALKVVRLLRLGRVVRKLDRYLEYGAAMLILLLCFYMLVAHWLACIWYSIGRSDADNGIQYSWLWKLANVTQSPYSYIWSNDTGPELVNGPSRKSMYVTALYFTMTCMTSVGFGNVAAETDNEKVFTICMMIIAALLYATIFGHVTTIIQQMTSATAKYHDMLNNVREFMKLHEVPKALSERVMDYVVSTWAMTKGLDTEKVLNYCPKDMKADICVHLNRKVFNEHPAFRLASDGCLRALAMHFMMSHSAPGDLLYHTGESIDSLCFIVTGSLEVIQDDEVVAILGKGDVFGDQFWKDSAVGQSAANVRALTYCDLHAIKRDKLLEVLDFYSAFANSFARNLVLTYNLRHRLIFRKVADVKREKELAERRKNEPQLPQNQDHLVRKIFSKFRRTPQVQAGSKELVGGSGQSDVEKGDGEVERTKVFPKAPKLQASQATLARQDTIDEGGEVDSSPPSRDSRVVIEGAAVSSATVGPSPPVATTSSAAAGAGVSGGPGSGGTVVAIVTKADRNLALERERQIEMASSRATTSDTYDTGLRETPPTLAQRDLIATVLDMKVDVRLELQRMQQRIGRIEDLLGELVKRLAPGAGSGGNAPDNSSGQTTPGDEICAGCGAGGGGTPTTQAPPTSAVTSPVDTVITISSPGASGSGSGTGAGAGSAVAGAGGAGLLNPGATVVSSAGGNGLGPLMLKKRRSKSRKAPAPPKQTLASTAGTATAAPAGVAGSGMTSSAPASADQQQQHQSTADQSPTTPGAELLHLRLLEEDFTAAQLPSTSSGGAGGGGGSGSGATPTTPPPTTAGGSGSGTPTSTTATTTPTGSGTATRGKLDFL
partner: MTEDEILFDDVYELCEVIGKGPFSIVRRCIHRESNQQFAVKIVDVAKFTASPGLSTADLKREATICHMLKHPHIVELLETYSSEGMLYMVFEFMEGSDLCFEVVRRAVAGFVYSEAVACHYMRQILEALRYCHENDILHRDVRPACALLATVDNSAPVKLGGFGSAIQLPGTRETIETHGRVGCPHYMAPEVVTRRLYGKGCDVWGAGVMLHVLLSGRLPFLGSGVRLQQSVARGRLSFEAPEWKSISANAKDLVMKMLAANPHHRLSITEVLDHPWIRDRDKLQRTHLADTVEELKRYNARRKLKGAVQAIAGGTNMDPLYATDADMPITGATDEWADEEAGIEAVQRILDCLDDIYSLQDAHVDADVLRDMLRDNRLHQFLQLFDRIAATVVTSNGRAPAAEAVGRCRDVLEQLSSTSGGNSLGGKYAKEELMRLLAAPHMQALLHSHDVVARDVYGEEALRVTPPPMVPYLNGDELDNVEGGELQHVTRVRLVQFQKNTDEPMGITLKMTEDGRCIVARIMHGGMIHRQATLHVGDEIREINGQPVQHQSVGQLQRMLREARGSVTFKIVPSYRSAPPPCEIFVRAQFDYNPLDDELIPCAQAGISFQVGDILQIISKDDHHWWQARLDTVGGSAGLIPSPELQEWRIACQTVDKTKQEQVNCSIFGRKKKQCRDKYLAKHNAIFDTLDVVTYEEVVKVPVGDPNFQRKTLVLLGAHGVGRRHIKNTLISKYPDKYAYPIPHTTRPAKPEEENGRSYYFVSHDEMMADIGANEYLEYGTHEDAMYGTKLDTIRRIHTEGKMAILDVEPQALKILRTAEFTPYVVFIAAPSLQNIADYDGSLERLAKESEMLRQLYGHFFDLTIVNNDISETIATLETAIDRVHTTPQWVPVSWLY

Variants of: B1
Details: with cskp_drome CASK

Row | effect of a mutation on the interaction | Variant
1 | decreasing interaction | R1037L
2 | decreasing interaction | K1040M
